System: MS2 coat protein
Experiment: apparent KD of MS2 coat protein; designed switch direction (-1 OFF switch, 1 ON switch): -1; higher = weaker reporter binding
Procedure, shortened: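 Apparent KD, taken as the median over clusters for each design, was obtained by curve-fitting normalised cluster fluorescence. Designed RNA switches had been transcribed on Illumina chips by stalled E. coli RNA polymerase and titrated with SNAP-549-labelled MS2 coat protein, doubling from 0.7 or 1.5 nM to 3 µM.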

[1] = input ligand: microRNA oligo, concentration not stated
[2] = Eterna round: R95, input ligand: microRNA oligo, concentration not stated
[3] = Eterna round: R95, input ligand: FMN 200 uM
[4] = Eterna round: R95, input ligand: none

| Sequence | apparent KD of MS2 coat protein (input ligand: FMN 200 uM) | apparent KD of MS2 coat protein (input ligand: none) | apparent KD of MS2 coat protein [1] | apparent KD of MS2 coat protein [2] | apparent KD of MS2 coat protein [3] | apparent KD of MS2 coat protein [4] |
| --- | --- | --- | --- | --- | --- | --- |
| UCGGCCGCCGUGAGGAUAUGCCCGCGCGCCCGCGGGCAGAAGGCACAUGAGGAUCACCCAUGUCCCGCGGCACC [salish99_bmx4_r4_125] (Eterna round: R97, puzzle: Brourd's mod of Exclusion 4) | 15.1 nM | 14.1 nM | – | – | – | – |
| UCUUGUUGUCCGUGAGAAGACAUGAGGAUCACCCAUGUUAGUUUGAUUAUGAUGUGUAAGUUUGUUGUUCGUUUUAU [JR_STOV1_v2_Sub072] (Eterna round: R97, puzzle: Sensor, turn-off variant 1) | 53.1 nM | 63.1 nM | – | – | – | – |
| UUUUUAAAUGAAGGAUAUACUUAACAUGAGGAUCACCCAUGUGGUGUUGUGAGUGAGUGAGUUUAGUAGAAGGUCAAGUAUUUU [JMF's solution 44] (Eterna round: R96, puzzle: Exclusion NG 2) | 814 nM | 392 nM | 339 nM | – | – | – |
| GUGUAGUCAGGAUAUACAUGAGGAUCACCCAUGUGAAUAAGAUAGAAUAAGAUAAAGUGUAGAAGGGAUAGUGU [Excluse me!!! 22 - Jieux - Exclusion 3] (puzzle: Exclusion 3) | – | – | – | 30.7 nM | – | – |
| AAGUACCGUCACGAUAGUGAUGGUACAACAUGUAGUGAAACAUGAGGAUCACCCAUGUCCUCAAUUGCUCGUCUUAU [Sensor 3 - 83] (puzzle: Sensor v3, turn-off variant 2) | – | – | – | 460 nM | 1400 nM | 1260 nM |
| AACAGUCUAGAGGAUAUGUUGGAUUAAUAUCUGGCAGAAGGCUGGACAUGAGGAUCACCCAUGUAAAUACUACC [Omei Ex6 A14] (Eterna round: R97, puzzle: Exclusion 6) | 98.7 nM | 34.4 nM | – | – | – | – |
| AUAAAGAGGCUAGGAUAUACAUCGGUGCGAAAAGACGUAAUCCUUUGAACAUGAGGAUCACCCAUGUAGAAGGAGCAGACGGAA [Quriored] (Eterna round: R96, puzzle: Exclusion NG 2) | 44.5 nM | 17.4 nM | 11.7 nM | – | – | – |
| AAACGGCAAUAAGGAUAUGCUUACCUGGGUCGUCUUCAAACAUGAGGAUCACCCAUGUAGUCGACGCAGAAGGUAUUCAAAGCC [ExNG2 first] (Eterna round: R96, puzzle: Exclusion NG 2) | 13.5 nM | 12.8 nM | 10.4 nM | – | – | – |
| CUCUGCACGCUGCGGUCCUACAUGAGGAUCACCCAUGUGGUCUGGUGGCGUGGGUCACCGGACUUGGCUCGUCUUGC [salish99_S_TOV1_R5_051] (Eterna round: R97, puzzle: Sensor, turn-off variant 1) | 21 nM | 22.7 nM | – | – | – | – |
| GGUAGAGUGGUAGGAUAUCCGACUGUUUCAGACGGAGAAGGACCACAGUCACUGGGUCCAAAUAUCAUGGAGACCUGAUCUACC [pwkr exNG1 F6.8] (Eterna round: R96, puzzle: Exclusion NG 1) | 983 nM | 634 nM | 556 nM | – | – | – |
| GCCACAGCAGGAUAUUCAAUAAUUCACAUGAGGAUCACCCAUGUCGAGCGAAAGCUCGAGGGAGAAGGGCUGUGGC [Mat - Exclusion 5 - Eli mod - D88] (puzzle: Exclusion 5) | – | – | – | 34.4 nM | – | – |
| GUGGGCUUUUAGGUUCUUAACAUGAGGAUCACCCAUGUGCUUGUCUUGCUGGCUGGCGGGUCGUCGGUCGGGCUUGU (Eterna round: R97, puzzle: Sensor, turn-off variant 1) | 489 nM | 584 nM | – | – | – | – |
| CUCCUCAUGACGCCUAAAGACAUGAGGAUCACCCAUGUACAGGCUUUUUGUCGUCUUAUAAUAAAACCGAGGAUGCG [Edmate] (puzzle: Sensor v3, turn-off variant 1) | – | – | – | 45.9 nM | 19.2 nM | 20.1 nM |
| UAUUAGCAAGAAAGAUCCCACAUGAGGAUCACCCAUGUGCUCGUCUUAUAAGGUACUGUGACGAAAGUCACGGUACC [Sensor 3, v1 - 89] (puzzle: Sensor v3, turn-off variant 1) | – | – | – | 101 nM | 25.3 nM | 26.4 nM |
| CAGGAUAGAGGAUAUACAUAGAUACAGAUUCAUGUGGUCCUACAUGAGGAUCACCCAUGUAGAAGGCUAUCCUG [Fiskers Ex 2 - 22] (puzzle: Exclusion 2) | – | – | – | 180 nM | – | – |
| UUCGGGUCAGGAUAUUGUUAGUUUAGUUGUUUGUAUUAGUUCGAGAAGGGACAUGAGGAUCACCCAUGUGGUAA [Ex4 #81] (Eterna round: R97, puzzle: Exclusion 4) | 71.5 nM | 160 nM | – | – | – | – |
| CGAGUACAUGAGGAUCACCCAUGUUAGGAUAUUGGUAUCAAAAGAGUCCGAUCUGAUCCAAGAAGGAGCAUGCC [Eternabot (L2) Solution 78] (Eterna round: R97, puzzle: Exclusion 1) | 32.5 nM | 27.1 nM | – | – | – | – |

| Sequence | apparent KD of MS2 coat protein (input ligand: FMN 200 uM) | apparent KD of MS2 coat protein (input ligand: none) | apparent KD of MS2 coat protein [1] | apparent KD of MS2 coat protein [2] | apparent KD of MS2 coat protein [3] | apparent KD of MS2 coat protein [4] |
| --- | --- | --- | --- | --- | --- | --- |
| UCCUGGCGAGGAUAUACAAUGUUAUUCGCGUGUAGUUGGAAACAUGAGGAUCACCCAUGUAGAAGGUGCUACUG [JR_Ex2_Sub025] (Eterna round: R97, puzzle: Exclusion 2) | 27.4 nM | 23.8 nM | – | – | – | – |
| AGAUCCUGAGUCAGGAUAUAGAGACGGAAGUCGGGCUAGAAGGGACAUGAGGAUCACCCAUGUGGGUUCGUGCC [Lalaarveti] (puzzle: Brourd's mod of Exclusion 4) | – | – | – | 16.3 nM | 33.5 nM | 23 nM |
| UUUUUGUCAGGAUAUGCGUAGUAGAACAAUAGUACUACUACGUAGAAGGGACAUGAGGAUCACCCAUGUUCCUC [Fiskers Ex 4 Super stable 44 mod 17] (puzzle: Exclusion 4) | – | – | – | 13.9 nM | – | – |
| CGUUCGCGAGGAUAUGCAUUCGAGUCCACUACGUGUCUGGGACUUGAGGAUCACCCAAGUAGAAGGCGCCUAAA [salish99_ex2_r4_652] (Eterna round: R97, puzzle: Exclusion 2) | 514 nM | 577 nM | – | – | – | – |
| UCUCGCGGGCAAGGAUAUCCCACACUGUUCUGGCCCGUGUCUGUUACAUGAGGAUCACCCAUGUGGGAGAAGGUGCACCAGGGC [Design 44] (Eterna round: R96, puzzle: Exclusion NG 2) | 78.8 nM | 35.9 nM | 31.6 nM | – | – | – |
| CAUGGAACGUAGGAUAUCUCGCAGCCCGGCCGCAGAGAAGGACGUACAUGAGGAUCACCCAUGUAUGAUCCAAA [Zareinon] (puzzle: Exclusion 6) | – | – | – | 19.8 nM | 32.2 nM | 26.2 nM |
| AAUAAUUGUGACAUGGGCGACAUGAGGAUCACCCAUGUUACAAGCUUGUUGCUCGUCUUAUAAUUAACCCAUGUCAC [LRO Sensor-off var1-22 mod of Stov1-13-A1 by Brourd] (Eterna round: R97, puzzle: Sensor, turn-off variant 1) | 16.3 nM | 15.2 nM | – | – | – | – |
| CAUACUCAAGUCAGGAUAUAGAGUCGGAUACGGGUCUAGAAGGGACAUGAGGAUCACCCAUGUAGAGAGUAAAG [EX-4 Malc #24] (puzzle: Brourd's mod of Exclusion 4) | – | – | – | 30.9 nM | 62.7 nM | 30.8 nM |
| GCAACUACGGAUCUCAUCAACAUGAGGAUCACCCAUGUAGAAUGCGUACAAGCUUUUUGUUCUGGCAUCCCAUAGUC [Eternabot (L2) Solution 35] (Eterna round: R97, puzzle: Sensor, turn-off variant 1) | 63 nM | 65.3 nM | – | – | – | – |
| GGUUGGCGAGGAUAUACAUGAGGAUCACCCAUGUGAGACAAAAAAGUGAGGAAGAAAAGUAGAAGGCGCUGACG [salish99_ex3_r3_021] (puzzle: Exclusion 3) | – | – | – | 54.1 nM | 362 nM | 64.1 nM |
| UCGCUGCGAGGAUAUACAUGAGGAUCACCCAUGUACGGGUCCGGGUCUAAGUUGAUAAGUAGAAGGCGCAGUGA [JL Laongeedie mod 12] (puzzle: Exclusion 3) | – | – | – | 114 nM | – | – |
| GCGUACUGAGGAUAUACAUGAGGAUCACCCAUGUGACACAGCAUUUAUUGAUAAAUUUGUAGAAGGCAGUAGGC [JR_Ex3_Sub059] (Eterna round: R97, puzzle: Exclusion 3) | 144 nM | 25 nM | – | – | – | – |
| AACUCUAAGCAGGAUAUCUAGCAAACGUCCGCAAGAGAAGGGCUUACAUGAGGAUCACCCAUGUAAGGAUGAUC [Reorzainar] (puzzle: Exclusion 6) | – | – | – | 26 nM | 48.8 nM | 24.9 nM |
| AAUAAUGAUAAGGAUAUCACUAGCGAUAGCUAGUGAGAAGGUAUCACAUGAGGAUCACCCAUGUGUUCCAAUAA [Ex6/6-A4] (Eterna round: R97, puzzle: Exclusion 6) | 35.2 nM | 17 nM | – | – | – | – |
| UAUGUUGUUGUGAGGAUAUACUUAGUUUGACCGUAGUAGAAGGCACAUGAGGAUCACCCAUGUAGAUGUUUGGU [JR_BME4_Sub005] (puzzle: Brourd's mod of Exclusion 4) | – | – | – | 14.9 nM | – | – |
| UGUUUGUCAGGAUAUGCUAGUGCUAGUGAAAGCUAGUGCUAGUAGAAGGGACAUGAGGAUCACCCAUGUGAACG [-27.1, -27 kcal, A 26%, 2bis-(ca)2] (Eterna round: R97, puzzle: Exclusion 4) | 117 nM | 54.1 nM | – | – | – | – |
| AACGUGGCUUAGGAUAUUGCUACGCAAAAGUAACAAGAAGGAAGCACAUGAGGAUCACCCAUGUGAUUCGUUGA [Larevean] (puzzle: Exclusion 6) | – | – | – | 12.2 nM | 27.1 nM | 13.3 nM |

From the supplement of paper PMC9170038
